The Kd is a measure of binding affinity in units of concentration. As usually defined, the koff is a measure of how fast the partners let go of each other. Usually kon stands for the rate constant with which the complex forms. As usually defined, the EC50 (read off the curve) is the midpoint of the concentration-response curve.

The target of test [1] is synthetic peptide S155 of the RAGE V-domain (amino acids 39-65) (human). The experiment in a line: SPR, antibody amine-coupled to a CM5 chip as ligand, peptide S155 (B-Rad) as analyte at 0.25-4 µM, 1:1 binding fit. In general terms: In SPR one partner is held on a chip, and binding of the other changes the refractive index at the surface.
Test [2] concerns the target Human rRAGE, full-length RAGE recombinant protein from Merck (human) (UniProt Q15109). Nature of the test: SPR, antibody amine-coupled to a CM5 chip as ligand, rRAGE protein as analyte at 0.0156-0.35 µM, 1:1 binding fit.
The target of test [3] is synthetic peptide S155 of the RAGE V-domain (amino acids 39-65) (human). The experiment in a line: SPR (Biacore T200), antibody amine-coupled to a CM5 chip as ligand, RAGE peptide S155 (BioRad) as analyte, multi-cycle kinetics, 1:1 fit; 'No steady state.'.
For test [4], the target named is T1, synthetic peptide S155 of the RAGE V-domain (amino acids 39-65) (human).
T1 construct: injected as analyte in SPR; also called RAGE synthetic peptide
T1 peptide: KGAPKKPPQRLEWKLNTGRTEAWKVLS
The description is as above. As for the experimental part:
This was followed by diluting the ligand with the appropriate Acetate buffer to at least 10 μg/mL. The ligand immobilization on the surface Series S Sensor Chip CM5 (29-1496-03, Cytiva) was performed using the Amine Coupling Kit (BR100050, Cytiva) containing 1-Etyhyl-3-(3-dimethylaminopropyl)-carbodiimide hydrochloride (EDC), N-Hydroxysuccinimide (NHS) and 1.0M ethanolamine-HcL PH 8.5 in accordance with the manufacturer's instructions. For each experimental run, the ligand was immobilized in flow cells 2 or 4 while flow cells 1 or 3 were left unmodified. […] Following each binding cycle, the surface was regenerated with a 30 s injection of 10 mM Glycine-HcL, pH 2.5 regeneration solution (BR-1003-56), removing the bound antibody with a contact time of 30 s, flow rate of 30 μL/min and a stabilization period of Os. Blank cycles (buffer only injection followed by regeneration step) was also performed. Data was double referenced by first subtracting responses from the reference flow cell and then subtracting the blank cycles. Data was then fitted to a 1:1 binding model using Biacore™ T200 Evaluation Software 2.0 and Biacore™ Insight Evaluation Software.
SPR analysis was subsequently used to evaluate the binding kinetics of the different murine clones to their targets (either using synthetic peptide used to produce the clones or recombinant RAGE protein (Uniprot reference: Q15109-1) Peptide S155=Original peptide from Biorad used to produce the murine clones. Human rRAGE=Full-length RAGE recombinant protein from Merck). The SPR parameters used for this analysis are described in the detailed methods.

Another test addresses RAGE (Homo sapiens, UniProt Q15109). The experiment in a line: Binding target blocking assay by immunofluorescence on HEC-1A cells. The class given is cell-based. More on the design: endogenous in cells; host or cells: HEC-1A (ECACC). The following applies: then antibody at 4 μg/ml. The procedure: To proof that HA9 shares similar binding epitope as other α-RAGE antibodies, an immunofluorescence approach was used. For this purpose, 1.5×10^4 HEC1A cells/well (obtained from the European Collection of Authenticated Cell Cultures, ECACC, Public Health England, UK) were seeded in 8-well chamber slides (Ibidi) in 300 μl of stripped medium and cultured for 24 h in a humidified, 5% CO2 in air atmosphere incubator at 37° C. After culture, cells were fixed with 4% paraformaldehyde (Sigma) for 20 minutes, permeabilized with 0.1% Triton X-100 (Sigma) for 10 minutes at 4° C. and blocked with 3% BSA in PBS for 1 h. Cells were then pre-incubated with a primary antibody against RAGE at a concentration in excess (20 μg/ml in 3% BSA in PBS for 1 h) to block the specific epitope they bind, before cells were incubated with the α-RAGE antibody of interest at 4 μg/ml in 3% BSA-PBS overnight at 4° C. This was followed by 1 h incubation with Alexa-fluorophore-conjugated secondary antibodies. Cells were washed with PBS extensively between all steps, counterstained before imaging with Hoechst (Life Technologies™) and imaged using a LSM710 confocal fluorescence microscopy system (Zeiss, UK). The mean intensity of fluorescence was obtained using imageJ by measuring the integrated density per imaged field, normalised by the number of cells in the respective field and obtaining the mean from >10 fields obtained per condition. A decrease in fluorescence in the pre-blocked condition compared with the not-pre-blocked condition means both antibodies share similar epitope of binding on the same protein.

The target in test [5] is T1, synthetic peptide S155 of the RAGE …. Nature of the test: SPR (Biacore T200), antibody amine-coupled to a CM5 chip as ligand, RAGE Peptide (S155) as analyte, multi-cycle kinetics, 1:1 fit; 'No steady state.'. The procedure: (§1) Data were then fitted to a 1:1 binding model.
(§2) For on-rate and off-rate screening, Biacore™ T200 system (Cytiva, Uppsala, Sweden) was used to perform SPR analysis with 1×HBS-EP+ buffer (0.01M Hepes, 0.15M NaCl, 0.003M ethylenediaminetetraacetic acid, and 0.05% Surfactant P20, pH 7.4) (BR100669) used as sample and running buffer. The analysis temperature at the sensor chip surface and within the compartment was set to 25° C. Firstly, pH scouting with 10 mM sodium acetate buffer 4.0 (BR-1003-49), 10 mM sodium acetate buffer 4.5 (BR-1003-50), 10 mM sodium acetate buffer 5.0 (BR-1003-51) and 10 mM sodium acetate buffer 5.5 (BR-1003-52) was performed to identify the optimal pH required for ligand (α-RAGE antibodies) immobilization. This was followed by diluting the ligand with the appropriate Acetate buffer to at least 10 μg/mL. The ligand immobilization on the surface Series S Sensor Chip CM5 (29-1496-03, Cytiva) was performed using the Amine Coupling Kit (BR100050, Cytiva) containing 1-Etyhyl-3-(3-dimethylaminopropyl)-carbodiimide hydrochloride (EDC), N-Hydroxysuccinimide (NHS) and 1.0M ethanolamine-HcL PH 8.5 in accordance with the manufacturer's instructions. For each experimental run, the ligand was immobilized in flow cells 2 or 4 while flow cells 1 or 3 were left unmodified.

The target is the same in test [6]. Nature of the test: ELISA, BSA-conjugated peptide S155 on the plate, two-fold dilutions of antibody, HRP anti-mouse, OD 450 nm. As for the experimental part: FIG. 2: Screening of purified anti-RAGE antibodies by enzyme linked immunosorbent assay (ELISA). BSA-conjugated synthetic peptides of RAGE protein were immobilized onto microplates and incubated with two-fold serial dilutions of antibodies.
A 96-well plate was coated with 5 μg/ml of RAGE synthetic peptides or RAGE recombinant protein diluted in phosphate-buffered saline (pH 7.4) overnight at 4° C. The solution was removed, washed with PBS-Tween (PBST) and the plate was blocked with ELISA ultrablock buffer (Biorad) for 1 h at room temperature. After blocking, the plate was washed with PBST and a range of concentrations of α-RAGE antibodies was applied to the plate for 2 h at room temperature. The plate was washed thoroughly with PBST and incubated with HRP-conjugated anti-mouse antibodies diluted 1:1000 in PBS-Tween. After washes with PBST, TMB Core+ substrate solution (Biorad) was added to each well and incubated at room temperature for 30 minutes. 0.2M H2SO4 was used as a stop solution. Absorbance at 450 nm was measured in a Biorad absorbance microplate reader.
The initial screening of the 6 murine antibody clones against RAGE was undertaken by ELISA. For this evaluation a range of 15 concentrations of each antibody clone was applied to the plate.
In general terms: ELISA stands for enzyme-linked immunosorbent assay.

The target is the same in test [7]. Nature of the test: SPR (Biacore T200), antibody amine-coupled to a CM5 chip as ligand, RAGE Peptide (S155) as analyte, multi-cycle kinetics, 1:1 fit. As for the experimental part: as §1, §2

Chain of Human rRAGE, full-length RAGE recombinant protein from Merck (human) (Q15109 23-404 limits assumed): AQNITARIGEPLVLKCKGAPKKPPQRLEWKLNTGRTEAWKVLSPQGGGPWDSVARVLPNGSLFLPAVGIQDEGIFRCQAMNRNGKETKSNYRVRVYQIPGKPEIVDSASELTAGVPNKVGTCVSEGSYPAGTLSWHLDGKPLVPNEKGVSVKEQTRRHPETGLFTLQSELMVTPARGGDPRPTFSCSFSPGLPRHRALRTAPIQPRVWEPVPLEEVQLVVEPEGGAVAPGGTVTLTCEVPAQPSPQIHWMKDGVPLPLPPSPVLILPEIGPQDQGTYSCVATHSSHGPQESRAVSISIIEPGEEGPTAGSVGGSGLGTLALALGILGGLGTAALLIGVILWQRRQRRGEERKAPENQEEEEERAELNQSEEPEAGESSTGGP
Chain of RAGE (Q15109 23-404): as the sequence (Q15109 23-404 limits assumed) above

As to “α-RAGE Abcam (Abcam, ab37647) (antibody)”, in test [1], the Kd was found to be 54.1 nM, the koff is 4.46 s⁻¹ and the kon turned out to be 8.2e+07 M⁻¹ s⁻¹. Also, in test [2], the Kd stood at 4.31 nM, the koff was 0.00077 s⁻¹ and the kon is 180000 M⁻¹ s⁻¹.

B1: murine BC3 anti-RAGE monoclonal antibody (antibody, part only; not given: Light chain variable region, V domains shown, part only)
VH: QVQLKQSGPGLVQPSQSLSITCTVSGFSLTNYGVHWVRQSPGKGLEWLGVIWTGGNTDYNAAFISRLSITKDNSKSQVFFKMNSLQANDTAIYYCARNLRGGYYGAWFAYWGQGTLVTVSA
For the molecule B1, in test [3], the Kd was 890 nM, the off-rate constant (koff) stood at 0.00333 s⁻¹ and the association rate constant (kon) was determined as 3720 M⁻¹ s⁻¹.

B2: murine CG7 (mCG7) anti-RAGE monoclonal antibody (antibody, V domains shown)
VH: B1 VH
VL: DVVMTQTPLSLPVSLGDQASISCRSSQTLVHSNGNTYLHWYLQKPGQSPKLLIYKVSNRFSGVPDRFTGSGSGTDFTLKISRVEAEDLGVYFCSQSTHVPPLTFGAGTKLELK
notes: Murine hybridoma antibody
Take B2: in test [4], the Kd stood at 296 nM, the koff turned out to be 0.00901 s⁻¹ and the kon came out at 30000 M⁻¹ s⁻¹.

B3: CG7: anti-RAGE antibody clone raised against RAGE peptide aa 39-65 (antibody, V domains shown)
VH: B1 VH
VL: B2 VL
For the molecule B3, the “staining after Abcam antibody pre-blocking” value with RAGE (Abcam antibody 20 μg/ml pre-incubation) is listed as “did not result in a decrease”. The “staining after N16 pre-blocking” value with RAGE (N16 20 μg/ml pre-incubation) is listed as “unaffected”.

B4: Anti-CG7 (Chimeric) (antibody, V domains shown)
VH: B1 VH
VL: B2 VL
notes: also called hCG7; chimeric CG7
Consider B4, for which, in test [5], the Kd is 320 nM and the off-rate constant (koff) worked out at 0.0095 s⁻¹.

B5: murine HA9 (mHA9) anti-RAGE monoclonal antibody (antibody, V domains shown)
VH: EVKLVETGGGLVQPGRPMKLSCVASGFTLSDHWMNWVRQSPEKGLEWVAQIRNRPYKFEKYYSDSVKGRFTISRDDSKNSVYLQMNNLRAEDMGIYYCSSYRYGLAYWGQGTLVTVST
VL: DNLLTQSPAILSVSPGERVSFSCRASQTIDTRIHWYQQRKNGSPRLLIRYISESLSGIPSRFSGSGSGTEFTLTINSVESEDIADYYCQQTESWPITFGSGTKLEIK
notes: Murine hybridoma antibody, purified on protein G; also called HA9 clone
In test [4], B5 registered a dissociation constant Kd of 720 nM and a koff of 0.0033 s⁻¹. In test [6], the “EC50 (read off the curve)” value is about 0.01 µg/mL.

B6: chimeric HA9 (hHA9) anti-RAGE antibody (antibody, V domains shown)
VH: B5 VH
VL: B5 VL
notes: Chimeric ('chimeric humanised format') version of HA9 made in HEK293 by Absolute Antibody
In test [7], B6 displayed a Kd of 203 nM and a koff of 0.0032 s⁻¹.

B7: murine BG7 anti-RAGE monoclonal antibody (antibody, V domains shown)
VH: EVKLDETGGGLVQPGRPMKLSCIASGFTLSDYWMNWVRQSPEKGLEWVAQIRNRPYNFETLYSDSVKGRFIISRDDSKNSVYLQMDNLGPDDSGIYYCSSYRYGLAYWGQGTLVTVSA
VL: DILLTQSPAILSVSPGERVSISCRASQTIDKRIHWYQQRTNGSPRLLIKYMSESISGTPSRFSGSGSGTDFTLTINSVESEDIAVYYCQQTNYWPITFGSGTKLELK
notes: Murine hybridoma antibody
In test [4], B7 showed a Kd of 410 nM, a koff of 0.02 s⁻¹ and an association rate constant (kon) of 49000 M⁻¹ s⁻¹. In addition, the half-maximal effective concentration (EC50 (read off the curve)) in test [6] is about 0.02 µg/mL.

B8: Anti-BG7 (Chimeric) (antibody, V domains shown)
VH: B7 VH
VL: B7 VL
notes: also called hBG7; chimeric BG7
On to B8, for which, in test [5], the affinity, expressed as Kd, was 607 nM and the koff was 0.0028 s⁻¹.

B9: murine IG7 anti-RAGE monoclonal antibody (antibody, V domains shown)
VH: B7 VH
VL: B7 VL
notes: Same VH and VL as BG7; also called ID7
Regarding B9, in test [4], the Kd amounted to 860 nM, the koff is 0.00326 s⁻¹ and the kon is 3790 M⁻¹ s⁻¹. Also, in test [6], the “EC50 (read off the curve)” value was about 0.02 µg/mL.

These data come from patent publication US20250163149A1, “ANTI-RAGE ANTIBODY” (Swansea University, priority 2022, published 2025).
